{
  "source": "paper PMC10686230",
  "about": "(The Journal of Cell Biology, 2023)",
  "target": "the molecule itself",
  "assay": "SEC + SEC-MALS",
  "data": [
    {"protein": "SMGL-1 (purified, GST tag cleaved) (natural protein, C. elegans, UniProt P90841 1-1615, looked up) MAHMRGTNHEKEKHDDENSKILLKERYNLLKWLTNVEMRSPNVLIPVQIANYVESLPFCKLAVSPKCDRVAVMSYARQLDIYQISGEILTHESSVQVLEETSPEYCILQFSSSSTLILSSRSTPHIDVFDSMGAYLYDIPLELHEGIFDVNSAICGMQTFENYSSSSNDKFIEILYVLQYSGVFSAFKIGRLSKYVKMWTVQLDIGQTGSFTVLPQYNLLLVASHHKESTSLVPPAGLCSFRMMDMDPFVEPIRISTPDGGFFSRLPFSTSFMSYLPRMSLSFDSQLLVSVSTSGSLYLFEIPSLHVKFSFNFISGPRPVDACFVDSDEIAVIYDNGYLLRCSLEDLEEKMYSVKMRSKKEIDEEPELKDFYSEQTVMVSPAQREIFLLTADGDNSFLRKAAHKRVQLAGQLWFYTVWNSLKKLVGMAMGEPAEQLHFETHIAKFEFSLIHSPTRTLQELFDRTLKEHDYTRARELAETYDTIDIYVVLKSEWIDKCSKNKVTVEDVEDILKRIGDSEWAAEQCASADSDDFEVHKALIDLGLSLGESSVTWQIRLLHHWRMLEVCRIKGDVDIYMMARNGSCLDAALTFAHNGDIDSLTRIIESNMAVMKHHQKRILSAIPTCTSPTKYEILMPKREDGETEEQWELEEQNDGIYERLDKILMEHPDAESLIRSINVGNIPNEETFDFTSWVRETLPKIDFECGMTDICVNLLQIAYERGYEDLIHDLATWQPYAQYIRICSSVSESITSFQDSTMKSFTDRFSRLLDSELIKNAKDIVSLIEWKIKMTSSDSEESIEDRLRDAVTTLMKATNERTTKVLVAFRNELPSVVDDHVILEVLLNMTSTGADLMKSLGDLPVDKYVNVTSSLGSLMSRGVKMTFKSIFESMKEPDGARRVLIKLSRSGNCSNFDDWMSLRDDIYDMANGIYEDLVTTEEALEIFAGEILEEERIGSHPELMELVLTLNPKEDNSNPRKLSIAKSADVLLSKSDELMNEATQRGDPLLGRSRFFAVAARPISPKKSKEKLDWLDAIDAALELGCTMMPIAIKFCEHDSLLRDVVGLGSNYKQGKKILSFAKQLNIDTPIATALSYCALAALNANDAVYLSKYIGEVMKAKGVPVVHKLCMQIMNSSHVPTDMEDVYSCAVLNSSEENLLDTVDAIASSEKRLSESRRCREIRLDDIPVSEAVVGDPMYTPMRLYNARKEISGDVKQKITFYGKRNLWETNYGKREGFDVMKRLYAHESSTVALCFSLFEPAENVETGELSWTKNDKLRRYERGLRFFQDRVPLSDLVTAPASAIINEANKGDASITAIDRIEDYGCDRRRFIGDAEYRTETIIGLAGTENEQIFADALELAEKYEIDEWKLHMASLEYLLDPSYNVPIIDVKQIMKSRKHLSKLRTKLDEFHSRLRSMVLPSLETNEQFLSYISLFADAEPEKKLGDTIKKIISKMKNVEAIRLWTDAKYLSSTLNKIPDGNLRAIISSVLQFPKIGVKACEMSAEFLLEGDDTRPPSNPFTLFLLMRSNIEDFLELVANKKSRDDEIAYLDQAVILLENTPKVPPLLLDAIKMRSEKMHRATVTPEPATPSNGSSTGLSSYFSNTEDNSGMMKRRKN", "values": [
      {"measurement": "stoichiometry N", "result": 4}
    ]}
  ]
}
